Assay results taken from the supplement of paper PMC9112550, “Optimization of the antimicrobial peptide Bac7 by deep mutational scanning” (BMC Biology, 2022).

Test system: Escherichia coli TOP10
Assay: shrunken log2 fold change of peptide-encoding DNA abundance (4.5 h post-induction vs induction); higher = less antimicrobial activity (less host growth inhibition)
Conditions: time post-induction: 4.5 h; library: site-saturation at positions 5, 18, 19, 20
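Also: peptides expressed intracellularly from a pBAD plasmid library in pooled LB shake-flask culture, induced with 0.3% L-arabinose, DNA abundance read by NGS, three biological replicates, DESeq2 with apeglm shrinkage.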

Sequence | shrunken log2 fold change
RRIRFRPPRLPRPRPRPYDYPRP | -0.107
RRIRDRPPRLPRPRPRPDNGPRP | -0.223
RRIRCRPPRLPRPRPRPFPHPRP | -0.175
RRIRNRPPRLPRPRPRPLYHPRP | -0.941
RRIRCRPPRLPRPRPRPIGRPRP | -0.0502
RRIRNRPPRLPRPRPRPVNFPRP | -0.157
RRIRGRPPRLPRPRPRPCASPRP | 0.557
RRIRHRPPRLPRPRPRPSRMPRP | -0.518
RRIRERPPRLPRPRPRPFRTPRP | -0.11
RRIRLRPPRLPRPRPRPEFTPRP | -0.0622
RRIRDRPPRLPRPRPRPWRNPRP | -0.0018
RRIRERPPRLPRPRPRPMVTPRP | -0.0939
RRIRMRPPRLPRPRPRPWPDPRP | 0.592
RRIRTRPPRLPRPRPRPREKPRP | -0.00088
RRIRPRPPRLPRPRPRPGERPRP | 0.1
RRIRTRPPRLPRPRPRPDAAPRP | 0.424
RRIRGRPPRLPRPRPRPRNCPRP | 0.0949
RRIRKRPPRLPRPRPRPFAKPRP | 0.0238
RRIRTRPPRLPRPRPRPFPDPRP | -0.123
RRIRDRPPRLPRPRPRPFGPPRP | -0.0754
RRIRVRPPRLPRPRPRPHPIPRP | -0.0473
RRIRKRPPRLPRPRPRPGMLPRP | 0.542
RRIRIRPPRLPRPRPRPIQHPRP | -0.468
RRIRPRPPRLPRPRPRPNKPPRP | -0.00463
RRIRERPPRLPRPRPRPSETPRP | -0.428

Sequence | shrunken log2 fold change
RRIRIRPPRLPRPRPRPMDFPRP | 0.00128
RRIRVRPPRLPRPRPRPVEIPRP | -0.0612
RRIRNRPPRLPRPRPRPHGTPRP | -0.105
RRIRFRPPRLPRPRPRPFKHPRP | -0.2
RRIRKRPPRLPRPRPRPMREPRP | 1.4
RRIRHRPPRLPRPRPRPGRPPRP | 0.616
RRIRHRPPRLPRPRPRPYMYPRP | -1.14
RRIRDRPPRLPRPRPRPETKPRP | 0.0655
RRIRMRPPRLPRPRPRPINAPRP | -0.0931
RRIRTRPPRLPRPRPRPDWHPRP | -0.053
RRIRCRPPRLPRPRPRPGEVPRP | 0.212
RRIRHRPPRLPRPRPRPILDPRP | 0.0523
RRIRFRPPRLPRPRPRPTMHPRP | -0.138
RRIRNRPPRLPRPRPRPIHYPRP | -0.285
RRIRKRPPRLPRPRPRPIMAPRP | 0.0791
RRIRLRPPRLPRPRPRPRVWPRP | 0.655
RRIRNRPPRLPRPRPRPKYAPRP | -0.292
RRIRFRPPRLPRPRPRPHKFPRP | -0.5
RRIRSRPPRLPRPRPRPETQPRP | 0.29
RRIRKRPPRLPRPRPRPFVNPRP | -0.122
RRIRHRPPRLPRPRPRPTFAPRP | 3.26
RRIRMRPPRLPRPRPRPLFHPRP | -0.0668
RRIRWRPPRLPRPRPRPSDSPRP | -0.0671
RRIRLRPPRLPRPRPRPYPVPRP | -0.025
RRIRDRPPRLPRPRPRPWCGPRP | -0.00113

Sequence | shrunken log2 fold change
RRIRVRPPRLPRPRPRPFAQPRP | 0.0825
RRIRVRPPRLPRPRPRPNESPRP | -0.374
RRIRERPPRLPRPRPRPVCGPRP | 0.243
RRIRNRPPRLPRPRPRPTQWPRP | 0.425
RRIRARPPRLPRPRPRPKTPPRP | 0.903
RRIRTRPPRLPRPRPRPFAMPRP | -0.348
RRIRGRPPRLPRPRPRPFNNPRP | -0.206
RRIRYRPPRLPRPRPRPQRCPRP | -0.0766
RRIRHRPPRLPRPRPRPWQNPRP | -0.169
RRIRKRPPRLPRPRPRPEPMPRP | 0.504
RRIRQRPPRLPRPRPRPDRAPRP | 0.12
RRIRNRPPRLPRPRPRPIAWPRP | 0.228
RRIRDRPPRLPRPRPRPGFQPRP | 0.252
RRIRQRPPRLPRPRPRPATVPRP | 0.239
RRIRCRPPRLPRPRPRPYAMPRP | -0.436
RRIRRRPPRLPRPRPRPHRWPRP | 0.409
RRIRMRPPRLPRPRPRPNMCPRP | 0.0492
RRIRSRPPRLPRPRPRPWDHPRP | -0.143
RRIRARPPRLPRPRPRPQRVPRP | -0.188
RRIRLRPPRLPRPRPRPAYFPRP | -0.364
RRIRHRPPRLPRPRPRPDCCPRP | -0.0827
RRIRVRPPRLPRPRPRPEVGPRP | 0.175
RRIRKRPPRLPRPRPRPGCEPRP | 1.31
RRIRKRPPRLPRPRPRPFWRPRP | 0.00905
RRIRNRPPRLPRPRPRPEQGPRP | 0.111
